The results in this text go back to the nanobody polyreactivity screen of Harvey et al. (2022).

This series is described as follows: yeast display, Sf9 membrane polyspecificity reagent, FACS + sequencing; frameworks hold sequencing errors. An outline of the steps: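 Genes from sorted yeast were amplified by colony PCR, read by MiSeq 2 × 250 sequencing and filtered on CDR length. These cells carried a synthetic nanobody library in Saccharomyces cerevisiae BJ5465 and were sorted by FACS into low and high (top ~1%) gates on anti-HA and streptavidin fluorescence. Polyreactivity is labelled according to the gate of origin.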
As to “QVQLVESGGGLDQAGGSLRLSCAASGFTFRHNTMGGYRQAPGKEREMVAAISIGGRTYYADSVKGRFTISRDNAKNTVYLQMNSLKPEDTAVYYCAKLSRGQSPGYDYWGQGTQVTVSS”, the “polyreactivity (PSR sort gate)” value is recorded as “high polyreactivity”.

In the case of “QVQLVESGGGLDQAGGSLRLSCAASGFTFSYNAMGWYRQAPGKERELVASISWRGGGTYYADSVKGRFTISRDNAKNTVYLQMNSLKPEDTAVYYCNAGLTDYIGDPSEVDYWGQGTQVTVSS”, the “polyreactivity (PSR sort gate)” value is listed as “low polyreactivity”. Regarding “QVQLVESGGGLDQAGGSLRLSCAASGGILVIYAMGWYRQEPGKERELVAAINVSGGSTYYADSVKGRFTISRDNAKNTVYLQMNSLKPEDTAVYYCAALGPYLDYGVQYGYWGQGTQVTVSS”, the “polyreactivity (PSR sort gate)” value is recorded as “low polyreactivity”.

For the sequence “QVQLVESGGGLDQAGGSLRLSCAASGGTFARYAMGWYRQAPGKERELVAAISARGGSTYYADSVKGRFTISRDNAKNTVYLQMNSLKPEDTAVYYCAAKKWYDRYGFDYWGQGTQVTVSS”, the “polyreactivity (PSR sort gate)” value was “high polyreactivity”. On to “QVQLVESGGGLDQAGGSLRLSCAASGGTFGLYAMGWYRQAPGKERELVAAITWSDSSTYYADSVKGRFTISRDNAKNTVYFQMNSLKPEDTAVYYCNAVRSTSYGSYNYWGQGTQVTVSS”, for which the “polyreactivity (PSR sort gate)” value is “low polyreactivity”. Under “QVQLVESGGGLDQAGGSLRLSCAASGGTFYYYAMGWYRQPPGKERELVAAITKNGGSTYYADSVKGRFTNSRDNAKNTVYLQMNRLKPEDTAVYSCAKATVAYGWWRYNYWGQGTQVTVSS” stands “high polyreactivity”; under “QVQLVESGGGLDQAGGSLRLSCAASGITFGRNTMGWYRQAPGQERELVAAIDSGGNTYADSVKGRFTISRDNAKNTVYLQMNCLKPEDTAVYYCAVDGGEFSSYGYWGQGTQVTVSS”, “low polyreactivity”. Under “QVQLVESGGGLDQAGGSLRLSCAASGITFPAYAMGLYRQAPGKEREWVAAITSGSSTNYADSVKGRFTISRDNAKNTVYLHLNSLKPEDTAVYYCAAQASYWGYRSGNRYGYWGQGTQVTVSS” stands “high polyreactivity”. On to “QVQLVESGGGLDQAGGSLRLSCAASGITFVRYAMGWYRQAPGKERELVAAISWSGGSTYYADSVKGRFTISRDNEKNTVYLQMNSLKPEDTAVYYCAAQHDVRYDYWGQGTQVTVSS”, for which the “polyreactivity (PSR sort gate)” value was “low polyreactivity”. Under “QVQLVESGGGLDQAGGSLRLSCAASGLIFRRYAMGWYRQAPGKERELVAAISRSGGSTYYADSVKGRFTISRDNAKNTVYLQMNSLKPEDTAVYYCAARTRSDNSYHGGEYWGQGTQVTVSS” stands “high polyreactivity”.

With “QVQLVESGGGLDQAGGSLRLSCAASGRIFEYNAMGWYRQAPGKERELVAAINYNDVSTYYADSVKGRFTISRDNAKNTVFFQINSLKPEDTAVYYCNVYGDKWSAAYGEYVYWGQGTQVTVSS”, the “polyreactivity (PSR sort gate)” value is given as “low polyreactivity”. Under “QVQLVESGGGLDQAGGSLRLSCAASGRIFFAYAMGWYRQAPGKEREFVAAISDNDGSTFYADSVKGRFTISRDNAKNPVYLQMNSLKPEDTAVYYCNADLGYVYDYWGQGTQVTVSS” stands “low polyreactivity”; under “QVQLVESGGGLDQAGGSLRLSCAASGRIFRFYAMGWYRQATGKERELVAAISSRGGSTYYADSVKGRFTISRDNAKNTFYLQMNSLKPEDTAVYYCAKKTWRDYSYNYWGQGTQVTVSS”, “high polyreactivity”. With “QVQLVESGGGLDQAGGSLRLSCAASGRIFRRYAMGWYRQAPGKERELVAAISTRGGSTYYADSVKGRFTISRDHAKNTVYLQMNSLKPEDTAVYYCNAEARSRRYRYDYWGQGTQVTVSS”, the “polyreactivity (PSR sort gate)” value was “high polyreactivity”.

As for “QVQLVESGGGLDQAGGSLRLSCAASGRIFTYNAMGWYRPAPGKERELVAVISRRGGSTYYADSVKGRFTISRDNAKNTVYLQMNSLKPEDTAVYYCAAGGSVFYDNRYDYWGQGTQVTVSS”, the “polyreactivity (PSR sort gate)” value was “low polyreactivity”. “QVQLVESGGGLDQAGGSLRLSCAASGRIFVGYARGWYRQAPVKERELVASITGRGTSTYYADSVKGRFTISRDNAKNTVYLQMNSLKPEDTAVYYCNALYRKYRNQWYISNYGYYYWGQGTQVTVSS”: the “polyreactivity (PSR sort gate)” value is “low polyreactivity”.

Regarding “QVQLVESGGGLDQAGGSLRLSCAASGRIFVIYAMGWYRQAPGKERELVAVINDDGSTNYADSVKGRFTISRDNAKNTVYLQMNSLKPEDTAVYYCAAESARYLTFEFDYWGQSTQVTVSS”, the “polyreactivity (PSR sort gate)” value is recorded as “low polyreactivity”. “QVQLVESGGGLDQAGGSLRLSCAASGRIFVPNAMGWYRQAPGKERELVAAINWGGGSTYYADSVKGRFTISRDNAKNTVYLQMNSLKPEDTAVYYCAADHPYTIGVLPNQQFDYWGQGPQVTVSS”: the “polyreactivity (PSR sort gate)” value was “low polyreactivity”. Regarding “QVQLVESGGGLDQAGGSLRLSCAASGRILRYYTMGWYRQAPGKERELVAAISRSGGGTYYADSVKGRFTISRDNAKNTVYLQMNSLKPEDTAVYYCAKQTHQKAYDYWGQGTQVTVSS”, the “polyreactivity (PSR sort gate)” value was “high polyreactivity”.

As for “QVQLVESGGGLDQAGGSLRLSCAASGRTFAHNAMGWYRQAPGKERELVAAITWSGGTTYYADSVKGRFTISRDNAKNTVYLQMNSLKPEDTAVYYCNTYSYLADPKYDYWGQGTQVTVSS”, the “polyreactivity (PSR sort gate)” value is recorded as “low polyreactivity”. Under “QVQLVESGGGLDQAGGSLRLSCAASGRTFRYYAMGWYRQAPWKESDLVATITGSGGSTYYADSVKGRFTISRDNSKNTVYLQMYSLKPEDTAVYYCNARKVRYPYRWYDYWGQGTQVTVSS” stands “high polyreactivity”; under “QVQLVESGGGLDQAGGSLRLSCAASGRTFWAPYTMGWYRQAPWKERELVAAISKSTTRTYYADSVKGRFTISRDNAKNTVYLQMTSLKPEDTAVYYCAVDSLYASRWVDYWGQGTQVTVSS”, “high polyreactivity”; under “QVQLVESGGGLDQAGGSLRLSCAASGRTFYRYAMGWYRQEPGKERELVATISRSGGSTYYADSVKGRFTISRDNAKNTVYLQMNSLKPEDTAVYYCNAEGYPWGFYTYDYWGQGTQVTVSS”, “low polyreactivity”. Under “QVQLVESGGGLDQAGGSLRLSCAASGSIFANNAMGWYRQAPGKERELVATIRSGGTTNYADSVKGRFTISRDNAKNTVYLQMNSLKPEDTAVYYCAAETVSYYSKYDYWGQGTQVTVSS” stands “low polyreactivity”. Under “QVQLVESGGGLDQAGGSLRLSCAASGSIFAPNAMGWYRQAPGKERELVAAITSSGGRTYYADSVKGRFTISRDNAKNTVYLQMNSLKPEDTAVYYCNACYYVRRDYDYWGQGTQVTVSS” stands “low polyreactivity”; under “QVQLVESGGGLDQAGGSLRLSCAASGSIFEKYAMGWYRQAPGKERELVAGISRSGGSTYYADSVKGRFTISRDNAKNTVYLQMNSLKLEDTAFYFCAARYTRYGSFYGFGYWGQGTQVTVSS”, “high polyreactivity”.

As to “QVQLVESGGGLDQAGGSLRLSCAASGSIFFYYAMVWYRQAPGKERELVADITSGGTTYYADSVKGRFTISRDNAKNTVYLQLNSLKPEDTAVYYCNACLYPGQRPDYTNYSSDYLGQGTQVTVSS”, the “polyreactivity (PSR sort gate)” value was “low polyreactivity”. Under “QVQLVESGGGLDQAGGSLRLSCAASGSIFGVNDMVWNRQAPGKERELVAAISGGGSTYYADSVKGRFTISRDNAKNTVYLQMNSLKPEDTAVYYCARRRTKSYTRKYDYWGQGTQVTVSS” stands “low polyreactivity”; under “QVQLVESGGGLDQAGGSLRLSCAASGSIFRWYAMGWYRQAPGKEREFVAAITSSGGSTYYADSVKGRFTISRDTAKNTVYLQINSVKPEDTAVYYCNRRYQPYSYDYWGEGTQVTVSS”, “high polyreactivity”; under “QVQLVESGGGLDQAGGSLRLSCAASGSIFVHYAMGWYRQAPGKERELVAGITFRGGRTYYADSVKGRFTISRDNAKNTVYLQMNSLKPEDTAVYYCAALYSVRGGYPSSHRIRMEYCGQGTQVTVSS”, “high polyreactivity”. Regarding “QVQLVESGGGLDQAGGSLRLSCAASGSIFYRNAMGWYRKAPGKERELVAAISWSGSRTYYADSVKVRFTISRDNAKNTVYLQMISLKPEDTAVYYCNRQYNQWIHYYYRMDYWGQGNQVTVSS”, the “polyreactivity (PSR sort gate)” value is listed as “high polyreactivity”. As for “QVQLVESGGGLDQAGGSLRLSCAASGSTFDSNTMGRSRQAPGKERELDAAITVSGGSTHYADSVKGRFTISRDNAKNTVYLQMNSLKPEDTAVYYCNRRSYGYGAFSGYDYWGQGTQVTVSS”, the “polyreactivity (PSR sort gate)” value is “low polyreactivity”. With “QVQLVESGGGLDQAGGSLRLSCAASGSTFDYYARGWYRQAPGKERELVAAISSSGGSTYYADSVKGRFTISRDNANYTVYLQRNSLKPEDTAVYYCNKYGGTLRSDYWGQGTQVTVSS”, the “polyreactivity (PSR sort gate)” value is listed as “high polyreactivity”. Under “QVQLVESGGGLDQAGGSLRLSCAASGSTFKHNAMGWYRQAPAKERVLVAGISWGGSSTYYADSVKGRFTISRDNAKNTVYLQMNSLKPDDTAVYYCAKGGYRRYGYDYWGQGTQVTVSS” stands “low polyreactivity”. Under “QVQLVESGGGLDQAGGSLRLSCAASGSTFPYYAMGWYRQAPGKERELVARISYRGGRTYYADSVKGRFTISRDNAKNTVYLQMNSLKAEDTAVYYCAADRWVYYHSTRYDYWGQGTQVTVSS” stands “high polyreactivity”; under “QVQLVESGGGLDQAGGSLRLSCAASGSTFRNNAMGWYRQAPGKERELVAAISRGGGSTYYADSVKGRFTISRDNAKNNVYLQMTSLKQDDTAVYDCARRPTGIYDYWGQGTQVTVSS”, “high polyreactivity”. Under “QVQLVESGGGLDQAGGSLRLSCAASGSTFRYYAMGWYRQAPGKERELVAAINWSGGTTSYADSVKGRFTISRDNAKNTVYLQMNSLKPEDTAVYYCAVPYLYKYSRYDYWGQGTQVTVSS” stands “high polyreactivity”; under “QVQLVESGGGLDQAGGSLRLSCAASGSTFTSNAMGWYRQAPGKERELVAAITWSGARTYYADSVKGRFTISRDNAKNTVYLQLNSLKPEDTAVYYCAAYIAGVTGGSGYYYWGQGTQVTVSS”, “high polyreactivity”; under “QVQLVESGGGLDQAGGSLRLSCAASGSTFYDNAMRWYRQAPGKERELVADISSGGRTNYADSVKGRFTISRDNAKNTVYLQMNCLKPEDTAVYYCAARLYVLRWYPYDYWGQGTQVTVSS”, “low polyreactivity”. For the sequence “QVQLVESGGGLDQAGGSLRLSCAASGSTLVYNDMGWYRQAPGIEREFVAAIRSNDGSTYYADSVKGRFTISGDNAKNTVYLQMNSLKPEDTAGYYCAVVYGYPYLRGYVYGFNYWGQGTQVTVSS”, the “polyreactivity (PSR sort gate)” value was “low polyreactivity”.

For the sequence “QVQLVESGGGLDQAGGSLRLSCAASGYTFLIYAMGWYRQAPGKERELVAAISYRDGRTYYADSVKGRFTISRDNAKNTVYLQMNSLNPEDTAVYYCAATLFYQPYRSYYYWGQGTQVTVSS”, the “polyreactivity (PSR sort gate)” value is “high polyreactivity”.
